Biological target: canine IL-31 (canine)

IC50 (read off the curve); STAT3-SEAP reporter, canine IL-31 stimulation [nM]	Substance
1 to 10	Cytopoint® (Lokivetmab), a canine anti-IL31 (Cas number: 1533403-95-0) (antibody)
3	Tirnovetmab, a canine anti-IL31 (Cas number: 2364504-80-1) (antibody)

Reference: patent US20250388683A1
